Reference: patent US20260144882A1 (BIO THERA SOLUTIONS, published 2026)
Where “and” joins values, the source holds several entries; their conditions need not be identical. Identical values can stand only once. Like-named read-outs stand apart in the source and are kept apart here.

T1: mouse mNectin-4 protein (ACRO, NE4-M52H3) (mouse, UniProt Q8R007 31-347)
T1 construct: bought; construct not described; also called mouse Nectin-4
T1 sequence (looked up): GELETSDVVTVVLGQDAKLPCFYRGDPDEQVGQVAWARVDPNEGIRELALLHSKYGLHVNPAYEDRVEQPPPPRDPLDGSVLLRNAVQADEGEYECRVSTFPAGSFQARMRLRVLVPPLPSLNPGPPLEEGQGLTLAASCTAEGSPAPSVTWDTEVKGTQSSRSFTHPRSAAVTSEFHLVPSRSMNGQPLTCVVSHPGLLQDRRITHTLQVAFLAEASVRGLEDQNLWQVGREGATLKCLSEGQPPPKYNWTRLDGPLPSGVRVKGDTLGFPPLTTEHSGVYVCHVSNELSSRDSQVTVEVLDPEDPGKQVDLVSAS

T2: monkey cNectin-4 protein (ACRO, NE4-C52H4) (cynomolgus monkey, UniProt A0A2K5WES1 32-349)
T2 construct: bought; construct not described; also called cynomolgus monkey Nectin-4
T2 sequence: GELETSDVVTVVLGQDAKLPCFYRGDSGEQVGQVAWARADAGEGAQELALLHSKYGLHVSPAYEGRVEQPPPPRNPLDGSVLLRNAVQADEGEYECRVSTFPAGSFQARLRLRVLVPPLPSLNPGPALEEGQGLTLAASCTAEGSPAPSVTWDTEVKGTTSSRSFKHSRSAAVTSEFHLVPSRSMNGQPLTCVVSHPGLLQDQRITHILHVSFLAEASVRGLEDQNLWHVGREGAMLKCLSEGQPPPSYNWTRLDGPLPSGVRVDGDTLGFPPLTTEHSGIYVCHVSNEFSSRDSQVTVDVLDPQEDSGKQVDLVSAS

T3: human Nectin-4 extracellular antigen hNectin-4-His (human, UniProt Q96NY8 32-349)
T3 construct: C-terminal 8xHis tag included
T3 sequence: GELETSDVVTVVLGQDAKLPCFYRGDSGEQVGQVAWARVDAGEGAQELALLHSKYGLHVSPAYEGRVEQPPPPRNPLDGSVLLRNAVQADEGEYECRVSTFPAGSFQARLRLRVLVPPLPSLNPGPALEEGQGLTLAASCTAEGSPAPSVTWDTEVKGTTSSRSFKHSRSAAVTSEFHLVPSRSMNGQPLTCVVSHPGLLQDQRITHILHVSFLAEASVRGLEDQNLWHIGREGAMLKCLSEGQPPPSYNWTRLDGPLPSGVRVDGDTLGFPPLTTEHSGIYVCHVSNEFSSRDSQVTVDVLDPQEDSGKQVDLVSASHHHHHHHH


Assays:
[1] = target: T1, mouse mNectin-4 protein (ACRO, …); test: ELISA, coated antigen
[2] = target: T2, monkey cNectin-4 protein (ACRO, …); test: ELISA, coated antigen
[3] = target: T3, human Nectin-4 extracellular antigen …; test: ELISA, coated hNectin-4-His
Description: (§1) The binding activity of the antibodies was detected by ELISA.

[4] = target: T3, human Nectin-4 extracellular antigen …; test: SPR, antibody on Protein A chip, 1:1 fit
Description: In this study, the affinity of the antibodies for the human Nectin-4 extracellular antigen was detected by surface plasmon resonance (SPR) technique (BIAcore: GE Healthcare, T200).

[5] = target: T3, human Nectin-4 extracellular antigen …; test: ELISA, coated hNectin-4-His; remark: listed apart in the source
Description: as §1

[6] = target: T3, human Nectin-4 extracellular antigen …; test: ELISA, coated hNectin-4-His; remark: listed apart in the source
Description: as §1

Row | EC50 [1] [µg/mL] | EC50 [2] [µg/mL] | EC50 [3] [µg/mL] | Kd [4] [nM] | koff [4] [s⁻¹] | kon [4] [M⁻¹ s⁻¹] | EC50 [5] | EC50 [6] [µg/mL] | Binder
1 | 0.037 | 0.036 | 0.068 | 4.97 | 0.003 | 605000 | – | – | antibody 1G8 (antibody, human IgG1, kappa, V domains shown) VH: not shown VL: DIQMTQSPSSLSASVGDRVTITCRASQGISSYLAWYQQKPGKAPKLLIYAASSLQSGVPSRFSGSGSGTDFTLTISSLQPEDFATYYCQQHYTTPPTFGQGTKVEIKR
2 | 0.041 | 0.041 | 0.038 | 3.23 | 0.00121 | 375000 | 0.041 µg/mL and 0.043 µg/mL | – | antibody 10F4 (antibody, human IgG1, kappa, V domains shown) VH: not shown VL: DIQMTQSPSSLSASVGDRVTITCRASQGISSYLAWYQQKPGKAPKLLIYAASSLQSGVPSRFSGSGSGTDFTLTISSLQPEDFATYYCQQHYTTPPTFGQGTKVEIKR
3 | 0.034 | 0.034 | 0.041 | 2.49 | 0.00195 | 785000 | – | 0.005 | antibody 1F3 (antibody, human IgG1, kappa, V domains shown) VH: not shown VL: DIQMTQSPSSLSASVGDRVTITCRASQGISSYLAWYQQKPGKAPKLLIYAASSLQSGVPSRFSGSGSGTDFTLTISSLQPEDFATYYCQQHYTTPPTFGQGTKVEIKR
